Source: patent publication US20250304965A1, “DOUBLE-STRANDED RNA MOLECULE AND PHARMACEUTICAL USE THEREOF” (MACAU UNIVERSITY OF SCIENCE AND TECHNOLOGY, priority 2022, published 2025)
[Ψ] = pseudouridine

Experiments:
Type in all cases: cell-based, human
A2780 cells = assay: MTT cytotoxicity analysis, ovarian cancer cells A2780
Experimental: (§1) A2780 and HCT-8 cell lines were cultured in RPMI 1640 medium containing 10% FBS and 1% penicillin/streptomycin. HepG2 cell lines were cultured in MEM medium containing 10% FBS and 1% penicillin/streptomycin. All the above cell lines were cultured at 37° C. in a humidified atmosphere containing 5% CO2.
(§2) In the cytotoxicity analysis, exponentially growing cells of each cancer cell line were inoculated at a density of 5000 cells per well in a 100 μL medium in a 96-well microplate and allowed to adhere for 24 hours prior to treatment. Then obtained RNA molecules at successive concentrations with a nucleic acid transfer vector, namely, Lipofectamine™ RNAiMAX transfection reagent (Thermo Fisher Scientific, United States), were added to the cells. After 48 hours of treatment, MTT solution (50 μL per well, 1 mg/mL solution) was added to each well and incubated at 37° C. for 4 hours. Then 200 μL of dimethyl sulfoxide (DMSO) was added, and an optical density of the resulting solution was measured via calorimetry by using SpectraMax 190 microplate reader (Molecular Devices, United States) at 570 nm. Dose-response curves were obtained and IC50 values were calculated via GraphPad Prism 5 (GraphPad, United States). Each experiment was performed three times.
(§3) Before addition of the MTT solution, the inventor determined the cytotoxic effects and IC 50 of the GL1, GL2, GL4, and GL6 mimics at different concentrations of 6.25 nM, 12.5 nM, 25 nM, 50 nM, 100 nM, and 200 nM on A2780, HCT-8 and HepG2 cells. After 48 hours of the treatment of the double-stranded RNA molecules, the cell viability of these cells was compared with that of the control group and the RNAiMAX group. Paclitaxel was used in a comparative example. […] The results were compared with those of the control group and the RNAiMAX group using the transfection agent. For IC50, refer to Table 4. Paclitaxel was used in a comparative example.
(§4) Then the inventor specifically determined the cytotoxic effects and IC50 of the RNA molecules GL2 mimic and different chemically modified GL10, GL11 and GL12 mimics at different concentrations of 6.25 nM, 12.5 nM, 25 nM, 50 nM, 100 nM, and 200 nM on A2780, HCT-8 and HepG2 cells. […] For IC50, refer to Table 5. Paclitaxel was used in a comparative example.

HCT-8 cells = assay: MTT cytotoxicity analysis, colorectal cancer cells HCT-8
Experimental: as §1, §2, §3, §4

HepG2 cells = assay: MTT cytotoxicity analysis, liver cancer cells HepG2
Experimental: as §1, §2, §3, §4

B1: GL12 mimic: chemically modified GL2 double-stranded RNA (pseudouridine); antisense SEQ ID NO: 22, sense SEQ ID NO: 26, length 41 (nucleic acid)
antisense: AUAAGGAAUCUGUAGAAGUUCGAUUCUUCUUGGGCUUACCA
sense: UGGUAAGCCCAAGAAGAAUCGAACUUCUACAGAUUCCUUAU
modifications: antisense: RNA, [Ψ] at 20, backbone not given here; sense: RNA, backbone not given here
Question: For B1, which IC50 (A2780 cells; A2780 ovarian cancer cells, 48 hours of treatment, Lipofectamine RNAiMAX transfection reagent, MTT, read-out: Median inhibitory concentration IC50) is on record?
Answer: Its IC50 is 43.7 nM.

Question: And the “inhibition of growth and proliferation (cell viability vs control and RNAiMAX group)” value (A2780 cells; ovarian cancer cells A2780, 6.25-200 nM, 48 hours, FIG. 6-8)?
Answer: Its value is “have a dose-dependent effect on inhibiting the growth and proliferation”.

Question: And the IC50 (HCT-8 cells; HCT-8 colorectal cancer cells, 48 hours of treatment, Lipofectamine RNAiMAX transfection reagent, MTT, read-out: Median inhibitory concentration IC50)?
Answer: Its IC50 is 32.4 nM.

Question: What about the “inhibition of growth and proliferation (cell viability vs control and RNAiMAX group)” value (HCT-8 cells; colon cancer cells HCT-8, 6.25-200 nM, 48 hours, FIG. 6-8) of the same molecule?
Answer: Its value is “have a dose-dependent effect on inhibiting the growth and proliferation”.

Question: And the IC50 (HepG2 cells; HepG2 liver cancer cells, 48 hours of treatment, Lipofectamine RNAiMAX transfection reagent, MTT, read-out: Median inhibitory concentration IC50)?
Answer: Its IC50 is 183 nM.

Question: What about the “inhibition of growth and proliferation (cell viability vs control and RNAiMAX group)” value (HepG2 cells; liver cancer cells HepG2, 6.25-200 nM, 48 hours, FIG. 6-8) of the same molecule?
Answer: Its value is “have a dose-dependent effect on inhibiting the growth and proliferation”.
